Measured values as given in paper PMC10113246, “Disease-related p63 DBD mutations impair DNA binding by distinct mechanisms and varying degree”.

Molecular target: T1, ΔNp63α R227Q (UniProt Q9H3D4-2 1-586, R172Q)
T1 sequence: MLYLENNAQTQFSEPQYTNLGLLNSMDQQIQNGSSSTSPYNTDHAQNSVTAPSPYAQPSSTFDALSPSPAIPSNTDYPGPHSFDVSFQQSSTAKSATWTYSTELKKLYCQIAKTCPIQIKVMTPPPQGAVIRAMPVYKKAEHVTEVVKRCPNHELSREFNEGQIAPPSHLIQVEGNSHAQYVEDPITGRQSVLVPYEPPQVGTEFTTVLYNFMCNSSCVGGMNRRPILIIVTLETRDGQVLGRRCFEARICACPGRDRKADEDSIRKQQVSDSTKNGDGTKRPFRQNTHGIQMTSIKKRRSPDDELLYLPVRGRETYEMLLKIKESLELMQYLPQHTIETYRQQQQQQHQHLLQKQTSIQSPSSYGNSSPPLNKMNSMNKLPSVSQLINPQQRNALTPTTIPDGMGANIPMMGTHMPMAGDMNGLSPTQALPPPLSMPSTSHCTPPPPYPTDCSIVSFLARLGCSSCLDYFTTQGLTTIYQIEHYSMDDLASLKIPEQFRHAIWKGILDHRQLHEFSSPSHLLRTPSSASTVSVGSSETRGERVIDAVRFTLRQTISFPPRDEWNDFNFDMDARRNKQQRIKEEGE
Assay: pull-down; not significantly different from WT; SPR DBD-TD: 25 mM HEPES pH 7.5, 200 mM NaCl, 0.5 mM TCEP, 0.005% Tween-20; SPR DBD: 10 mM HEPES pH 7.5, 150 mM NaCl, 0.2 mM TCEP, 0.005% Tween-20; random-sequence dsDNA (S12/S13) as reference cell; pull-down: 50 mM Tris pH 8.0, 150 mM NaCl, 0.1% Tween-20, 4 °C
Conditions: protein: ivt, tags: Myc, chain copies: 4, blunt

B1: p21 RE (pulldown) (dsDNA)
DNA 1: GCCAGGAACATGTCCCAACATGTTGAGCCG
DNA 2: CGGCTCAACATGTTGGGACATGTTCCTGGC
label: 5' biotin on S8
  binding result: binds

B2: KRT14 RE (pulldown) (dsDNA)
DNA 1: AAAATATGACAGACATGATGAGGCGGATGA
DNA 2: TCATCCGCCTCATCATGTCTGTCATATTTT
label: 5' biotin on S10
  binding result: binds
